# Experimental data reported in patent publication US20230375537A1.
# How the values were obtained:
# [1] = molecular target: HER2 (as partner of the 'natural' / 'original' dissociation constants) (UniProt P04626); test: natural dissociation constant of the molecule outside the sensor; method not stated
# [2] = molecular target: HER2 (as partner of the 'natural' / 'original' dissociation constants) (UniProt P04626); test: natural dissociation constant of the bought molecule outside the sensor; method not stated
Substance,Kd [1] [nM],Kd [2] [nM]
Z342-EGFP-Histag (a molecule having a polyhistidine tag and an anti-HER2 affibody to which a fluorescence group EGFP is fused) (designed binder),0.106,
"Anti-Her2 Affibody Molecule (anti-Her2 affibody molecule, Abcam) (designed binder)",,0.032
